Experimental data taken from patent US20260209386A1 (MYTHIC THERAPEUTICS, published 2026).

T1: Recombinant human CCK4/PTK7 Protein (His Tag), Sino Biological 19399-H08H (human, UniProt Q13308 31-704)
T1 construct: bought protein; not shown: His tag
T1 sequence: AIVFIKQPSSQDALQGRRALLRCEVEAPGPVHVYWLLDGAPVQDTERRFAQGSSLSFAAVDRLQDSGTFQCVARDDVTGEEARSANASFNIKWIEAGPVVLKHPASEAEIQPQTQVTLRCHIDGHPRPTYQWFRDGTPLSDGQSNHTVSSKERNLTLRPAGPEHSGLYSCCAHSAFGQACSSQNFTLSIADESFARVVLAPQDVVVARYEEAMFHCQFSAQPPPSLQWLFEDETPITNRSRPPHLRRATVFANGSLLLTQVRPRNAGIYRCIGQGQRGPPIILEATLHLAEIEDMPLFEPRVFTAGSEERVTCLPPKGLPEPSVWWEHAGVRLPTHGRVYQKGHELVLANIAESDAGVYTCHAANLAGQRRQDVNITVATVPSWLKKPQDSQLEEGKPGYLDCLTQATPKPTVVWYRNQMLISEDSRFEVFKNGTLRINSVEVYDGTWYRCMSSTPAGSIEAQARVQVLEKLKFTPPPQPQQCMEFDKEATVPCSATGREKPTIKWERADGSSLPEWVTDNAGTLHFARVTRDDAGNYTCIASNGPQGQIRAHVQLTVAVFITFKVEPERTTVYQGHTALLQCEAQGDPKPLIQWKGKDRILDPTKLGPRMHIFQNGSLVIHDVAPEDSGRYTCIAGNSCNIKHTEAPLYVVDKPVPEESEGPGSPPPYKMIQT

T2: Human PTK7 Protein, His Tag, Acro Biosystems (human, UniProt Q13308 31-704)
T2 construct: Bought recombinant protein; also called CCK4; not shown: His tag
T2 sequence: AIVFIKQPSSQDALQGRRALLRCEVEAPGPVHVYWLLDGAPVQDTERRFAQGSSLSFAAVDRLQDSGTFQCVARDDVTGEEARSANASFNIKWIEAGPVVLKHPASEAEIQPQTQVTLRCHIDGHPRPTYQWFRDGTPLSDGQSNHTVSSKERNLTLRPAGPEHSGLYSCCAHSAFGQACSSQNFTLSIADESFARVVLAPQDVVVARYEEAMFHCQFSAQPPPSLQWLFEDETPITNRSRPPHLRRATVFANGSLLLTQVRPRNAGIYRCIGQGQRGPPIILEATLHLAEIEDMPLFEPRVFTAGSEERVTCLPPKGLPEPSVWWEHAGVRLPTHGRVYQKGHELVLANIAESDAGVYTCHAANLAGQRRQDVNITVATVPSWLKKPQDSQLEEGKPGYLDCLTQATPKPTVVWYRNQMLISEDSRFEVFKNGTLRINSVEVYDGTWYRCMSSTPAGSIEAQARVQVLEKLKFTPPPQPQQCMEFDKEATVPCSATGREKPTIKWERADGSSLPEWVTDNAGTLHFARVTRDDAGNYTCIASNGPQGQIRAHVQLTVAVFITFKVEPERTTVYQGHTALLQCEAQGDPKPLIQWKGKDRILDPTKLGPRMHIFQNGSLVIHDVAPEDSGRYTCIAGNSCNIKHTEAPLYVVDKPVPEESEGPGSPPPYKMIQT


Biological target: T1, Recombinant human CCK4/PTK7 Protein …
Assay: BLI, antibody on anti-human Fc sensor

| binding result | Binder |
| --- | --- |
| no binding (tested: 50 nM PTK7) | MYT7858 (antibody, V domains shown, IgG) VH: QVQLVQSGPEVKKPGASVKVSCKASGYTFTDYAVHWVRQAPGKRLEWIGVISTYNDYTYNNQDFKGRVTMTRDTSASTAYMELSRLRSEDTAVYYCARGNSYFYALDYWGQGTSVTVSS VL: EIVLTQSPATLSLSPGERATLSCRAHESVDSYGKSFMAWYQQKPGQAPRLLIYRASNLESGIPARFSGSGSGTDFTLTISSLEPEDFAVYYCQQSNEDPWTFGGGTKLEIK |
| no binding (tested: 50 nM PTK7) | MYT7862 (antibody, V domains shown, IgG) VH: QVQLVQSGPEVKKPGASVKVSCKASGYTFTDYAVHWVRQAPGKRLEWIGVISTYNDYTYNNQDFKGRVTMTRDTSASTAYMELSRLRSEDTAVYYCARGNSYFYALDYWGQGTSVTVSS VL: EIVLTQSPATLSLSPGERATLSCRASESVDHYGKSFMHWYQQKPGQAPRLLIYRASNLEHGIPARFSGSGSGTDFTLTISSLEPEDFAVYYCQQSNEDPWTFGGGTKLEIK |
| no binding (tested: 50 nM PTK7) | MYT7963 (antibody, V domains shown, IgG) VH: EVQLVQSGGGLVHPGGSLRLSCAGSGFTHSTYLMYWVRQAPGKTLEWVSAIGSGGDTYYADSVKGRFTISRDNAKNSLYLQMNSLRAEDMAVYYCARGLGYWGQGTLVTVSS VL: not shown |
| no binding (tested: 50 nM PTK7) | MYT7986 (antibody, V domains shown, IgG) VH: EVQLVQSGGGLVHPGGSLRLSCAGSGFTFSTYLMYWVRQAPGKTLEWVSAIGSGGDTYYADSVKGRFTISRDNAKNSLYLQMNSLRAEDMAVYYCHRGLGYWGQGTLVTVSS VL: not shown |
| no binding (tested: 50 nM PTK7) | MYT8017 (antibody, V domains shown, IgG) VH: EVQLVQSGGGLVHPGGSLRLSCAGSGFTFSTYLMYWVRQAPGKTLEWVSAIGSGGDTYYADSVKGRFTISRDNAKNSLYLQMNSLRAEDMAVYYCARGLGYWGQGTLVTVSS VL: not shown |
| no binding (tested: 50 nM PTK7) | MYT7972 (antibody, V domains shown, IgG) VH: EVQLVQSGGGLVHPGGSLRLSCAGSGFTFSTYLMYWVRQAPGKTLEWVSAIHSGGDTYYADSVKGRFTISRDNAKNSLYLQMNSLRAEDMAVYYCARGLGYWGQGTLVTVSS VL: not shown |
| no binding (tested: 50 nM PTK7) | MYT8016 (antibody, V domains shown, IgG) VH: EVQLVQSGGGLVHPGGSLRLSCAGSGFTFSTYLMYWVRQAPGKTLEWVSAIGSGGDTYYADSVKGRFTISRDNAKNSLYLQMNSLRAEDMAVYYCARGLGYWGQGTLVTVSS VL: not shown |
| no binding (tested: 50 nM PTK7) | MYT7970 (antibody, V domains shown, IgG) VH: EVQLVQSGGGLVHPGGSLRLSCAGSGFTFSTYLMYWVRQAPGKTLEWVSHIGSGGDTYYADSVKGRFTISRDNAKNSLYLQMNSLRAEDMAVYYCARGLGYWGQGTLVTVSS VL: not shown |
| no binding (tested: 50 nM PTK7) | MYT7987 (antibody, V domains shown, IgG) VH: EVQLVQSGGGLVHPGGSLRLSCAGSGFTFSTYLMYWVRQAPGKTLEWVSAIGSGGDTYYADSVKGRFTISRDNAKNSLYLQMNSLRAEDMAVYYCAHGLGYWGQGTLVTVSS VL: not shown |
| no binding (tested: 50 nM PTK7) | MYT8003 (antibody, V domains shown, IgG) VH: EVQLVQSGGGLVHPGGSLRLSCAGSGFTFSTYLMYWVRQAPGKTLEWVSAIGSGGDTYYADSVKGRFTISRDNAKNSLYLQMNSLRAEDMAVYYCARGLGYWGQGTLVTVSS VL: not shown |
| no binding (tested: 50 nM PTK7) | MYT7973 (antibody, V domains shown, IgG) VH: EVQLVQSGGGLVHPGGSLRLSCAGSGFTFSTYLMYWVRQAPGKTLEWVSAIGHGGDTYYADSVKGRFTISRDNAKNSLYLQMNSLRAEDMAVYYCARGLGYWGQGTLVTVSS VL: not shown |
| no binding (tested: 50 nM PTK7) | MYT7989 (antibody, V domains shown, IgG) VH: EVQLVQSGGGLVHPGGSLRLSCAGSGFTFSTYLMYWVRQAPGKTLEWVSAIGSGGDTYYADSVKGRFTISRDNAKNSLYLQMNSLRAEDMAVYYCARGHGYWGQGTLVTVSS VL: not shown |
| no binding (tested: 50 nM PTK7) | MYT8019 (antibody, V domains shown, IgG) VH: EVQLVQSGGGLVHPGGSLRLSCAGSGFTFSTYLMYWVRQAPGKTLEWVSAIGSGGDTYYADSVKGRFTISRDNAKNSLYLQMNSLRAEDMAVYYCARGLGYWGQGTLVTVSS VL: not shown |
| no binding (tested: 50 nM PTK7) | MYT7988 (antibody, V domains shown, IgG) VH: EVQLVQSGGGLVHPGGSLRLSCAGSGFTFSTYLMYWVRQAPGKTLEWVSAIGSGGDTYYADSVKGRFTISRDNAKNSLYLQMNSLRAEDMAVYYCARHLGYWGQGTLVTVSS VL: not shown |

Biological target: T2, Human PTK7 Protein, His Tag, Acro …
Assay: BLI, anti-human Fc capture, 50 nM PTK7; 1 = pH dependent binding relative to parent

| binding result | Binder |
| --- | --- |
| binds | MYT11258 (antibody, V domains shown, MYT9792 variant, His at VH 30 (H1 05)) VH: EVQLVESGGGLVQPGGSLRLSCTASGIDLHRYSMGWVRQAPGKGLEWVGIISYGGSTYYASWAKGRFTISRDTSKNTVYLQMNSLRAEDTAVYFCARVGYPGYSGYGYAFDAFDPWGQGTLVTVSS VL: EIVMTQSPSTLSASVGDRVIITCQSSKSVYNDNWLSWYQQKPGKAPKLLIYGASTLASGVPSRFSGSGSGAEFTLTISSLQPDDFATYYCAGGYSSSSDNGFGQGTKLTVL |
| binds | MYT11263 (antibody, V domains shown, MYT9792 variant, His at VH 35 (H1 10)) VH: EVQLVESGGGLVQPGGSLRLSCTASGIDLSRYSMHWVRQAPGKGLEWVGIISYGGSTYYASWAKGRFTISRDTSKNTVYLQMNSLRAEDTAVYFCARVGYPGYSGYGYAFDAFDPWGQGTLVTVSS VL: EIVMTQSPSTLSASVGDRVIITCQSSKSVYNDNWLSWYQQKPGKAPKLLIYGASTLASGVPSRFSGSGSGAEFTLTISSLQPDDFATYYCAGGYSSSSDNGFGQGTKLTVL |
| binds | MYT11272 (antibody, V domains shown, MYT9792 variant, His at VH 58 (H2 09)) VH: EVQLVESGGGLVQPGGSLRLSCTASGIDLSRYSMGWVRQAPGKGLEWVGIISYGGSTHYASWAKGRFTISRDTSKNTVYLQMNSLRAEDTAVYFCARVGYPGYSGYGYAFDAFDPWGQGTLVTVSS VL: EIVMTQSPSTLSASVGDRVIITCQSSKSVYNDNWLSWYQQKPGKAPKLLIYGASTLASGVPSRFSGSGSGAEFTLTISSLQPDDFATYYCAGGYSSSSDNGFGQGTKLTVL |
| binds | MYT11285 (antibody, V domains shown, MYT9792 variant, His at VH 101 (H3 06)) VH: EVQLVESGGGLVQPGGSLRLSCTASGIDLSRYSMGWVRQAPGKGLEWVGIISYGGSTYYASWAKGRFTISRDTSKNTVYLQMNSLRAEDTAVYFCARVGYHGYSGYGYAFDAFDPWGQGTLVTVSS VL: EIVMTQSPSTLSASVGDRVIITCQSSKSVYNDNWLSWYQQKPGKAPKLLIYGASTLASGVPSRFSGSGSGAEFTLTISSLQPDDFATYYCAGGYSSSSDNGFGQGTKLTVL |
| binds | MYT11279 (antibody, V domains shown, MYT9792 variant, His at VH 65 (H2 16)) VH: EVQLVESGGGLVQPGGSLRLSCTASGIDLSRYSMGWVRQAPGKGLEWVGIISYGGSTYYASWAKHRFTISRDTSKNTVYLQMNSLRAEDTAVYFCARVGYPGYSGYGYAFDAFDPWGQGTLVTVSS VL: EIVMTQSPSTLSASVGDRVIITCQSSKSVYNDNWLSWYQQKPGKAPKLLIYGASTLASGVPSRFSGSGSGAEFTLTISSLQPDDFATYYCAGGYSSSSDNGFGQGTKLTVL |
| binds | MYT11267 (antibody, V domains shown, MYT9792 variant, His at VH 53 (H2 04)) VH: EVQLVESGGGLVQPGGSLRLSCTASGIDLSRYSMGWVRQAPGKGLEWVGIISHGGSTYYASWAKGRFTISRDTSKNTVYLQMNSLRAEDTAVYFCARVGYPGYSGYGYAFDAFDPWGQGTLVTVSS VL: EIVMTQSPSTLSASVGDRVIITCQSSKSVYNDNWLSWYQQKPGKAPKLLIYGASTLASGVPSRFSGSGSGAEFTLTISSLQPDDFATYYCAGGYSSSSDNGFGQGTKLTVL |
| binds | MYT11309 (antibody, V domains shown, MYT9792 variant, His at VL 29 (L1 06)) VH: EVQLVESGGGLVQPGGSLRLSCTASGIDLSRYSMGWVRQAPGKGLEWVGIISYGGSTYYASWAKGRFTISRDTSKNTVYLQMNSLRAEDTAVYFCARVGYPGYSGYGYAFDAFDPWGQGTLVTVSS VL: EIVMTQSPSTLSASVGDRVIITCQSSKSHYNDNWLSWYQQKPGKAPKLLIYGASTLASGVPSRFSGSGSGAEFTLTISSLQPDDFATYYCAGGYSSSSDNGFGQGTKLTVL |
| binds | MYT11289 (antibody, V domains shown) VH: EVQLVESGGGLVQPGGSLRLSCTASGIDLSRYSMGWVRQAPGKGLEWVGIISYGGSTYYASWAKGRFTISRDTSKNTVYLQMNSLRAEDTAVYFCARVGYPGYSHYGYAFDAFDPWGQGTLVTVSS VL: EIVMTQSPSTLSASVGDRVIITCQSSKSVYNDNWLSWYQQKPGKAPKLLIYGASTLASGVPSRFSGSGSGAEFTLTISSLQPDDFATYYCAGGYSSSSDNGFGQGTKLTVL |
